Laboratory results taken from patent publication US6617117B1, “MAP kinases: polypeptides, polynucleotides and uses thereof” (Medical Research Council, priority 1996, dated 2003).

What was measured:
SAPK3 [1] = biological target: T1, SAPK3 (Rattus norvegicus, UniProt Q63538); assay: Activation of transfected myc epitope-tagged SAPK3 in KB and 293 cells, immunoprecipitation and MBP assay; assay type: cell-based, human; set-up: expressed in transfected cells; host or cells: human KB and 293 cells (vector pSG5); settings: FIG. 11A
T1 sequence (Q63538 1-367): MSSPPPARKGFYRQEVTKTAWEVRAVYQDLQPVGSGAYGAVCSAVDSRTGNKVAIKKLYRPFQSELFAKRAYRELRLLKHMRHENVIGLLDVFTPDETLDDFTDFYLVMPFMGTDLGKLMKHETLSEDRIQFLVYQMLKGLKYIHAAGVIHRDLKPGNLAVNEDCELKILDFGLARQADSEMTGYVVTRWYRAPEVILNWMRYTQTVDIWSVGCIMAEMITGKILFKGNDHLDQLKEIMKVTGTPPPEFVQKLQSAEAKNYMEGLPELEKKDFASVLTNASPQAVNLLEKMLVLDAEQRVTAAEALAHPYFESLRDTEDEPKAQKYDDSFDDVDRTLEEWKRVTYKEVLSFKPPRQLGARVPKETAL
Method: FIG. 11. SAPK3 is activated by cytokines and cellular stresses in KB and 293 cells. KB cells (A) or 293 cells (B) were transiently transfected with a DNA construct expressing a myc epitope-tagged SAPK3. Cells in DMEM were stimulated for 15 min with 0.5 M sorbitol (an osmotic shock), 20 ng/ml IL-1α, 100 ng/ml TNFa, 0.5 mM sodium arsenite (a chemical stress), 100 ng/ml of EGF or 300 ng/ml TPA, or for 30 min with […] anisomycin or 10 min with 100 ng/ml IGF-1. UV-C irradiation of cells was carried out at 60 J/m2 (KB cells) or 200 J/m2 (293 cells) and the cells then left for a further 30 min at 37° C. before lysis. The myc epitope-tagged SAPK3 was immunoprecipitated from cell lysates using the 9E10 monoclonal antibody and assayed with MBP as substrate. […] After UV-C irradiation, SAPK3 activity in the extracts was 0.18 U/mg (KB cells) and 0.1 U/mg (293 cells).
Cell culture and transient transfections. 293, KB and COS-7 cells were cultured in Dulbecco's modified Eagles' Medium (DMEM) supplemented with 10% foetal calf serum, at 37° C., in an atmosphere of 5% CO2. Transfections of 293 cells were carried out using the calcium-phosphate method. […]

SAPK3 [2] = biological target: T1, SAPK3; assay: Co-transfection of SAPK3 with SKK3 into COS cells (FIG. 14); assay type: cell-based; set-up: expressed in transfected cells; host or cells: COS-1 cells (vector pSG5), alone or with human SKK3 or MEK kinase
Method: FIG. 14. SKK3 activates SAPK3 in transfected cells. COS-1 cells were transiently transfected with DNA expressing SAPK3 or co-transfected with either SKK3 or MEK kinase (MEKK). Cells were stimulated in DMEM for 15 min or with 0.5 M sorbitol. After stimulation and lysis, SAPK3 was immunoprecipitated from the cell lysates using an anti-SAPK3 antibody raised against the C-terminal 16 residues of SAPK3 (see Methods) and activity measured using MBP as the substrate.
Cell culture and transient transfections. 293, KB and COS-7 cells were cultured in Dulbecco's modified Eagles' Medium (DMEM) supplemented with 10% foetal calf serum, at 37° C., in an atmosphere of 5% CO2. Transfections of 293 cells were carried out using the calcium-phosphate method. Cells were split to a density of 2×106 per 10 cm dish, and after 12 h at 37° C., 10 μg of plasmid DNA in 0.45 ml of sterile water was added to 50 μl of sterile CaCl2, and then 0.5 ml of sterile buffer composed of 50 mM N,N-bis[2-hydroxyethyl]-2-aminoethanesulphonic acid/HCl pH 6.96, 0.28 M NaCl and 1.5 mM Na2HPO4 was added. The resulting mixture was vortexed for 1 min, allowed to stand at room temperature for 20 min, and then added dropwise to a 10 cm dish of 293 cells. The cells were placed in an atmosphere of 3% CO2 for 16 h at 37° C., then the medium was aspirated and replaced with new DMEM containing 10% foetal calf serum. […]

SAPK4 = biological target: T2, SAPK4 (Homo sapiens, UniProt O15264); assay: Co-transfection of SAPK4 with SKK3 into COS cells; assay type: cell-based; set-up: expressed in transfected cells; host or cells: COS1 cells, co-transfected with human SKK3; settings: n=3
T2 sequence (O15264 1-365): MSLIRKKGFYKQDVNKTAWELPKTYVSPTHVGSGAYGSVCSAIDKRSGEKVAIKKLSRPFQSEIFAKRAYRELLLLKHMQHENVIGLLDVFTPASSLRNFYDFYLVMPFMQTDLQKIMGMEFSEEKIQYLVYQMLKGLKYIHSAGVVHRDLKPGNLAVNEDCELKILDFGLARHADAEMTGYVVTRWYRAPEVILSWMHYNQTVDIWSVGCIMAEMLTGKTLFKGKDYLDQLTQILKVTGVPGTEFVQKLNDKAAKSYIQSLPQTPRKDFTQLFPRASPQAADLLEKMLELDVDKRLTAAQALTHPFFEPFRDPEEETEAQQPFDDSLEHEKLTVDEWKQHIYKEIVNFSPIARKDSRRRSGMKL
Method: For bacterial expression, the open reading frames of human cDNA clones hSAPK2B2, hSAPK32 and hSAPK412 were amplified by PCR and subcloned as EcoRI fragments into expression vector pGEX4T-1 (Pharmacia), followed by transformation into E. coli strain BL21(DE3). The transformed bacteria were grown to an absorbance of 0.6 at 600 nm and induced with 0.4 mM isopropyl-1-thio-β-galactopyranoside (IPTG). […] For expression of c-myc epitope-tagged SAPK4, PCR was used to introduce the nucleotide sequence encoding the amino acid sequence […] (SEQ. ID. NO: 4) at the carboxy-terminus of SAPK4, followed by a stop codon. The resulting EcoRI/NotI fragment was subcloned into the mammalian expression vector pcDNA3.1 (Invitrogen). […] PCR fragments were verified by DNA sequencing. Transfections into COS1 cells were done as described in Example 4 and Cuenda et al, 1997.
We have shown previously that SKK3 accounts for 95% and SKK2 for 5% of the SAPK2a activator detected after Mono S chromatography of lysates from KB cells that have been stressed in several ways or stimulated with IL1 (Cuenda et al, 1996; Meier et al, 1996). […] SKK3 was also the only activator of SAPK4 after subjecting KB cells to osmotic stress using sorbitol (data not shown). Further evidence that SKK3 can activate SAPK4 in vivo was obtained by co-transfection into COS cells. […]

Molecule	Activation of transfected SAPK3 (in words) (SAPK3 [1])	Elevation of SAPK3 activity by coexpression (SAPK3 [2]) [fold]	Greater activation of transfected SAPK3 by osmotic shock where cotransfected (SAPK3 [2]; osmotic shock) [fold]	Elevation of SAPK4 activity by co-expression (SAPK4) [fold]
EGF: growth factor stimulus from Boehringer (protein, UniProt P01133 23-1207, looked up, Pro-epidermal growth factor, growth factor stimulus from Boehringer) Pro-epidermal growth factor: PQHWSCPEGTLAGNGNSTCVGPAPFLIFSHGNSIFRIDTEGTNYEQLVVDAGVSVIMDFHYNEKRIYWVDLERQLLQRVFLNGSRQERVCNIEKNVSGMAINWINEEVIWSNQQEGIITVTDMKGNNSHILLSALKYPANVAVDPVERFIFWSSEVAGSLYRADLDGVGVKALLETSEKITAVSLDVLDKRLFWIQYNREGSNSLICSCDYDGGSVHISKHPTQHNLFAMSLFGDRIFYSTWKMKTIWIANKHTGKDMVRINLHSSFVPLGELKVVHPLAQPKAEDDTWEPEQKLCKLRKGNCSSTVCGQDLQSHLCMCAEGYALSRDRKYCEDVNECAFWNHGCTLGCKNTPGSYYCTCPVGFVLLPDGKRCHQLVSCPRNVSECSHDCVLTSEGPLCFCPEGSVLERDGKTCSGCSSPDNGGCSQLCVPLSPVSWECDCFPGYDLQLDEKSCAASGPQPFLLFANSQDIRHMHFDGTDYGTLLSQQMGMVYALDHDPVENKIYFAHTALKWIERANMDGSQRERLIEEGVDVPEGLAVDWIGRRFYWTDRGKSLIGRSDLNGKRSKIITKENISQPRGIAVHPMAKRLFWTDTGINPRIESSSLQGLGRLVIASSDLIWPSGITIDFLTDKLYWCDAKQSVIEMANLDGSKRRRLTQNDVGHPFAVAVFEDYVWFSDWAMPSVMRVNKRTGKDRVRLQGSMLKPSSLVVVHPLAKPGADPCLYQNGGCEHICKKRLGTAWCSCREGFMKASDGKTCLALDGHQLLAGGEVDLKNQVTPLDILSKTRVSEDNITESQHMLVAEIMVSDQDDCAPVGCSMYARCISEGEDATCQCLKGFAGDGKLCSDIDECEMGVPVCPPASSKCINTEGGYVCRCSEGYQGDGIHCLDIDECQLGEHSCGENASCTNTEGGYTCMCAGRLSEPGLICPDSTPPPHLREDDHHYSVRNSDSECPLSHDGYCLHDGVCMYIEALDKYACNCVVGYIGERCQYRDLKWWELRHAGHGQQQKVIVVAVCVVVLVMLLLLSLWGAHYYRTQKLLSKNPKNPYEESSRDVRSRRPADTEDGMSSCPQPWFVVIKEHQDLKNGGQPVAGEDGQAADGSMQPTSWRQEPQLCGMGTEQGCWIPVSSDKGSCPQVMERSFHMPSYGTQTLEGGVEKPHSLLSANPLWQQRALDPPHQMELTQ	more weakly			
SKK3: SAP kinase kinase 3, upstream activator of SAPK2a, SAPK2b, SAPK3 and SAPK4 (protein) MSQSKGKKRNPGLKIPKEAFEQPQTSSTPPRDLDSKACISIGNQNFEVKADDLEPIMELGRGAYGVVEKMRHVPSGQIMAVKRIRATVNSQEQKRLLMDLDISMRTVDCPFTVTFYGALFREGDVWICMELMDTSLDKFYKQVIDKGQTIPEDILGKIAVSIVKALEHLHSKLSVIHRDVKPSNVLINALGQVKMCDFGISGYLVDSVAKTIDAGCKPYMAPERINPELNQKGYSVKSDIWSLGITMIELAILRFPYDSWGTPFQQLKQVVEEPSPQLPADKFSAEFVDFTSQCLKKNSKERPTYPELMQHPFFTLHESKGTDVASFVKLILGD		10	30	12.5±0.63
